Protein stability index data for 38 sequences are collected here from the supplement of paper PMC9732359.

The data set in a line: protein stability index of a GFP-peptide fusion (yeast GPS) (PSI 1-4); higher = more stable; sorted into four equal gates, so the index is relative within each strain. The gist of the method: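 The protein stability index of a peptide was calculated by multiplying its read frequency in each gate by that gate's number and adding the products. The peptides were tiled 17-residue stretches of yeast proteins, fused downstream of GFP on a Cherry-expressing plasmid and carried in yeast as a pooled library. Mid-log cultures in leucine-free medium were sorted into four equal gates by GFP/Cherry ratio, and each gate's plasmids were PCR-amplified and Illumina-sequenced.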

± gives the uncertainty stated by the source.

For the sequence EVKEQLGILKKKRFDEF [SMC4], the protein stability index reads like this: (pdr5∆) 2.68 ± 0.22; (san1∆) 2.35 ± 0.23; (ubr1∆) 3.03 ± 0.12.
As for RFKVVKVSGVSLLALWK [RPS23A], the protein stability index reads like this: (doa10∆) 2.55 ± 0.22; (pdr5∆) 1.59 ± 0.14; (san1∆) 1.71 ± 0.14; (ubr1∆) 1.81 ± 0.14.
For the sequence DTYKRFKYLLGVTDLFR [ISW2], the protein stability index is, setting by setting: (doa10∆) 1.85 ± 0.045; (pdr5∆) 1.37 ± 0.052; (san1∆) 1.21 ± 0.11; (ubr1∆) 1.34 ± 0.075.
Take KKVASANATAAESDVAK [RPL16A]: the protein stability index turned out to be 3.08 ± 0.054 (doa10∆), 3.04 ± 0.065 (pdr5∆), 3.1 ± 0.036 (san1∆) and 3.02 ± 0.038 (ubr1∆).
With CKNFEKTQLGSTMTEPV [GAL11], the protein stability index was found to be 2.81 ± 0.05 (doa10∆), 2.84 ± 0.065 (pdr5∆), 2.58 ± 0.054 (san1∆) and 2.84 ± 0.039 (ubr1∆).
The matching figures for HYLVNLTSPAFGPHVDV [GRR1]: 2.27 ± 0.14, 2.87 ± 0.12, 2.16 ± 0.25 and 3.42 ± 0.28.
The matching figures for LCKTKMVCETDVPSEDD [RPO21]: 2.99 ± 0.071, 3 ± 0.093, 3.25 ± 0.074 and 2.52 ± 0.067.
Turning to LERFNKRADISKRRITE [SMC1], the protein stability index runs as follows: (doa10∆) 3.14 ± 0.14; (pdr5∆) 2.7 ± 0.074; (san1∆) 2.96 ± 0.17; (ubr1∆) 2.99 ± 0.13.
In the case of IGESARIIREMFAYAKE [RPT4], the protein stability index runs as follows: (doa10∆) 2.31 ± 0.065; (pdr5∆) 2.29 ± 0.064; (san1∆) 2.04 ± 0.063; (ubr1∆) 1.75 ± 0.038.
As to CVKLTVRSLLEVVQTGA [PRE6], the protein stability index by setting is: (doa10∆) 2.44 ± 0.3; (ubr1∆) 2.27 ± 0.29.
As for PEETPLEELAETFQDTF [FAS2], the protein stability index is, setting by setting: (doa10∆) 3.11 ± 0.056; (pdr5∆) 2.96 ± 0.062; (san1∆) 3.12 ± 0.048; (ubr1∆) 3.32 ± 0.059.
For the sequence KGPRFRKLTSQEINDRL [PRE8], the protein stability index (doa10∆) was found to be 3.09 ± 0.098, the protein stability index (pdr5∆) is 3.19 ± 0.11, the protein stability index (san1∆) stood at 3.06 ± 0.18 and the protein stability index (ubr1∆) was 3.58 ± 0.093.
As to QRVFKPVDITMMENYQN [PRP8], the protein stability index (doa10∆) came out at 2.43 ± 0.063, the protein stability index (pdr5∆) was 2.27 ± 0.074, the protein stability index (san1∆) stood at 2.71 ± 0.073 and the protein stability index (ubr1∆) stood at 2.41 ± 0.048.
Take NDIFERIATEASKLAAY [HTB1]: the protein stability index by setting is: (doa10∆) 1.93 ± 0.23; (pdr5∆) 1.34 ± 0.11; (san1∆) 1.19 ± 0.17; (ubr1∆) 1.34 ± 0.24.
For the sequence ETQYFWKLLNQLVLRGL [YJR042W/NUP85], the protein stability index turned out to be 2.18 ± 0.19 (doa10∆), 1.26 ± 0.074 (pdr5∆), 1.26 ± 0.11 (san1∆) and 1.16 ± 0.1 (ubr1∆).
With NCIRILADKLENYEGKQ [YIL149C/MLP2], the protein stability index (doa10∆) worked out at 3 ± 0.3, the protein stability index (pdr5∆) came to 3.57 ± 0.2, the protein stability index (san1∆) is 3.22 ± 0.093 and the protein stability index (ubr1∆) was 2.81 ± 0.19.
Regarding NISSSQQLLPAPQLFPY [DSN1], the protein stability index reads like this: (doa10∆) 2.44 ± 0.12; (pdr5∆) 2.71 ± 0.097; (san1∆) 2.62 ± 0.078; (ubr1∆) 2.84 ± 0.086.
In the case of ITSIMDDLALPYQHPPN [ITC1], the protein stability index turned out to be 3.17 ± 0.084 (doa10∆), 3.34 ± 0.076 (pdr5∆), 3.08 ± 0.078 (san1∆) and 3.22 ± 0.048 (ubr1∆).
As for KSSPISNEAAKPSFSFP [YOR098C/NUP1], the protein stability index by setting is: (doa10∆) 2.86 ± 0.05; (pdr5∆) 2.93 ± 0.045; (san1∆) 2.96 ± 0.037; (ubr1∆) 3 ± 0.04.
In the same order, the values of RLYVKGKHLSYQRSKRV [RPL33A] are 2.1 ± 0.063, 1.75 ± 0.046, 1.67 ± 0.094 and 2.46 ± 0.065.
Take YTANTSAQSIASAKSVR [YAR002W/NUP60]: the protein stability index (doa10∆) came to 2.64 ± 0.088, the protein stability index (pdr5∆) stood at 2.93 ± 0.11, the protein stability index (san1∆) worked out at 2.65 ± 0.09 and the protein stability index (ubr1∆) amounted to 2.71 ± 0.12.
In the same order, the values of KRIKGLEFSALSAADIV [RPO31] are 3.09 ± 0.09, 3.15 ± 0.076, 3.15 ± 0.061 and 3.24 ± 0.067.
IIQPFLDNSKMDYHFIF [RGR1] came in with a protein stability index (doa10∆) of 2.99 ± 0.13, a protein stability index (pdr5∆) of 2.06 ± 0.082, a protein stability index (san1∆) of 2.22 ± 0.049 and a protein stability index (ubr1∆) of 2.31 ± 0.11.
For the sequence GLGVNRRILAAAAAAAA [SSN3], the protein stability index by setting is: (doa10∆) 1.44 ± 0.07; (pdr5∆) 1.52 ± 0.083; (san1∆) 1.08 ± 0.2; (ubr1∆) 1.95 ± 0.069.
In the same order, the values of FIVVPDLLKNAPLFKKN [SMD3] are 2.07 ± 0.053, 1.57 ± 0.042, 1.66 ± 0.11 and 1.32 ± 0.035.
Turning to GIRAPKGALMYGPPGTG [RPT5], the protein stability index amounted to 2.86 ± 0.14 (doa10∆) and 1.32 ± 0.11 (ubr1∆).
Turning to RLAEVNLKDLNNVKQMV [RPO21], the protein stability index was 2.77 ± 0.26 (doa10∆), 2.9 ± 0.25 (san1∆) and 3.08 ± 0.18 (ubr1∆).
For SFSDENSDDFFMDNSYD [ESC2], the protein stability index was 1.97 ± 0.068 (doa10∆), 1.8 ± 0.11 (pdr5∆), 2.63 ± 0.1 (san1∆) and 1.81 ± 0.062 (ubr1∆).
Turning to KVGIWPYFDYIFNDILA [YJL039C/NUP192], the protein stability index runs as follows: (doa10∆) 1.67 ± 0.11; (pdr5∆) 1.96 ± 0.071; (san1∆) 1.75 ± 0.17; (ubr1∆) 1.43 ± 0.061.
The sequence LPTTVVSNPGDNPPPAD [MED2] gave a protein stability index (doa10∆) of 3.02 ± 0.046, a protein stability index (pdr5∆) of 2.95 ± 0.052, a protein stability index (san1∆) of 3.04 ± 0.051 and a protein stability index (ubr1∆) of 3.11 ± 0.037.
Take LSGLAQRKTNGASNGDD [BRN1]: the protein stability index is 3.15 ± 0.17 (doa10∆), 3.29 ± 0.17 (pdr5∆), 3.05 ± 0.077 (san1∆) and 3.6 ± 0.15 (ubr1∆).
The matching figures for VEQDEGQCRTELEGSFN [YCS4]: 3.38 ± 0.081, 3.48 ± 0.098, 3.12 ± 0.14 and 3.49 ± 0.067.
For the sequence NNSEQDQEIVIQQLHSV [ISW2], the protein stability index (doa10∆) turned out to be 2.48 ± 0.06, the protein stability index (pdr5∆) came to 2.59 ± 0.071, the protein stability index (san1∆) stood at 2.2 ± 0.096 and the protein stability index (ubr1∆) was 2.53 ± 0.038.
VGRFSTISSADFIQNVG [ECM29]: the protein stability index turned out to be 3.16 ± 0.1 (doa10∆), 2.65 ± 0.079 (pdr5∆), 3.03 ± 0.08 (san1∆) and 2.72 ± 0.088 (ubr1∆).
On to SPLNTTTKILGDKILGN [YML103C/NUP188], for which the protein stability index was found to be 2.33 ± 0.055 (doa10∆), 2.63 ± 0.049 (pdr5∆), 2.45 ± 0.059 (san1∆) and 2.12 ± 0.028 (ubr1∆).
The matching figures for LKPVDKLKPMNIERKQT [SIN4]: 2.82 ± 0.11, 3.05 ± 0.11, 2.83 ± 0.088 and 3.04 ± 0.11.
Take EDQKVVDKALIAEIKKT [RPL6A]: the protein stability index runs as follows: (doa10∆) 3.37 ± 0.13; (pdr5∆) 3.48 ± 0.084; (san1∆) 3.19 ± 0.11; (ubr1∆) 3.61 ± 0.072.
As for LPIYDSLMSSQNKLFYI [SIR3], the protein stability index runs as follows: (doa10∆) 2.15 ± 0.14; (pdr5∆) 2.01 ± 0.14; (ubr1∆) 1.38 ± 0.093.
